Test results as given in the RNAGym collection of RNA variant scans (doi:10.1073/pnas.2313332121).

B1: TPR t1 (parent)
chain: GACCAAUCUGCCCUCAGAGCUCGAGAACAUCUUCGGAUGCAGAGGAGGCAGGCUUCGGUGGCGCGAUAGCGCCAACGUCCUCAACCUCCAAUGCAUCCCACCACAUGAUGAUGCCUGAAGAGCCUUGGUUUUUUG

Variants of: B1
Assay: polymerase ribozyme fitness, log enrichment relative to wild type (log ratio); higher = more active; in vitro selection for triplet polymerase activity
Procedure, shortened: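 Fitness compares each genotype's enrichment to that of the wild type on a logarithmic scale, averaging replicates with inverse-variance weights. The logarithm is base 2. Enrichment came from Illumina sequencing of input and output libraries after one triplicate round of in vitro selection, which included frozen incubation at −7 °C, of PCR-built, transcribed mutant libraries of each subunit of a heterodimeric triplet polymerase ribozyme. Only genotypes with ≥10 input reads and ≥1 read per output were kept.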

Variant	polymerase ribozyme fitness (log ratio)
GACCAAUCUGCCCUCAGAGCUCGAGAACAUCUUCGGAUGCAGAGGAGGCAGAAUUCGGUGGCGCGAUAGCGCCAACAUCCUCAUCCUCCAAUGCAUCCCACCACAUGAUGAUGCCUGAAGAACCUUGGUUUUUUG [G52A C53A G77A A84U G122A]	-2.24
GACCAAUCUGCCCUCAGAGCUCGAGAACAUCUUCGGAUGCAGAGGAGGCAUGCUUCGGUGGCGCGAUAGCGCCAACGUCCUCAACCUCAAAUGCAUCCCACCACAUGAUGAUGCCUGAAGAGCCUUGGUUUUUUG [G51U C89A]	-5.25
GACCAAUCUGCCCUCAGAGCUCGAGAACAUCUUCGGAUGCAGAGGAGGCAUGCUUCGGUUGCGCGAUACCGCGAACGUCCUCAACCUCCAAUGCAUCCCACCACAUGAUGAUGCCUGAAGAGCCUUGGUUUUUUG [G51U G60U G69C C73G]	-4.99
GACCAAUCUGCCCUCAGAGCUCGAGAACAUCUUCGGAUGCAGAGGAGGCAUGCUUCGGUGGCGCGAUAGCGCCAACGUCCUCAACCUCCAAUGCAUCCCACCACAUGAUGAUGCCUGAACAGCCUUGGUUUUGUG [G51U G120C U133G]	-1.86
GACCAAUCUGCCCUCAGAGCUCGAGAACAUCUUCGGAUGCAGAGGAGGCAUGCUUCGGUGGCGCGAUAGCGCCAACGUCCUCAACCUCCAAUGAAUCCCACCACAUGAUGAUGCCUGAAGAGCCUUGGUUUUGUG [G51U C94A U133G]	-3.88
GACCAAUCUGCCCUCAGAGCUCGAGAACAUCUUCGGAUGCAGAGGAGGCAGACUUGGGUGGCGCGAUAGCGCCAACGUCCUCAACCUCCAAUGCAGCCCACCACAUGAUGAUGCCUGAAGAGCCUUGGUUUUUUG [G52A C56G U96G]	-1.35
GACCAAUCUGCCCUCAGAGCUCGAGAACAUCUUCGGAUGCAGAGGAGGCAUGCUUCGGUGGCGCGAUAGCGCCAACGUCCUCAACCUUCAAUGCAUCCCACCACAUGAUGAUCCCUGAAGAGCCUUGGUUUUUUG [G51U C88U G113C]	-5.71
GACCAAUCUGCCCUCAGAGCUCGAGAACAUCUUCGGAUGCAGAGGAGGCAUGCUUCGGUGGCGCGAUAGCGCCAACGUCCUCAACCUCCAGUGCAUCCCACCACAUGAUGAUGCCUGAAGAGCCUUGGUUUUUUG [G51U A91G]	-5.12
GACCAAUCUGCCCUCAGAGCUCGAGAACAUCUUCGGAUGCAGAGGAGGCAGACUUCGGUGGCGCGAUAGUGCCAACGUCCUCAACUUCCAAUGAAUCCCCUCACAUGAUGAUGGCUGAAGAGCCUUGGUUUUUUG [G52A C70U C86U C94A A100C C101U C114G]	-5.67
GACCAAUCUGCCCUCAGAGCUCGAGAACAUCUUCGGAUGCAGAGGAGGCAUGCUUCGGUGGGGCGAUAGCGCCAACGUCCUCAACCUCCAAUGCAUCCCACCACAUGAUGAUGCCUGAAGAGCCUUGGUUUUUUG [G51U C62G]	-5.98
GACCAAUCUGCCCUCAGAGCUCGAGAACAUCUUCGGAUGCAGAGGAGGCAUGCUUCGGUGGAGCGAUAGCGCCAACGUCCUCAACCUCCAAUGCAUCCCACCACAUGAUGAUGCCUGAAGAGCCUUGGUUUUUUG [G51U C62A]	-5.43
GACCAAUCUGCCCUCAGAGCUCGAGAACAUCUUCGGAUGCAGAGGAGGCAGACUUCGGUGGCGCGAUAGUGCCAACAGUCUCAACCUCCAAUGCAUCCCACCACAUGAUGAUGCCUUAAGAGCCUUGGUUUUUUG [G52A C70U G77A U78G C79U G117U]	-3.69
GACCAAUCUGCCCUCAGAGCUCGAGAACAUCUUCGGAUGCAGAGGAGGCAUGCUUCGGUGACGUGAUAGCGCCAACGUCCUCAACCUCCAAUGCAUCCCACCACAUGAUGAUGCCUGAAGAGCCGUGGUUUUUUG [G51U G61A C64U U125G]	-6.13
GACCAAUCUGCCCUCAGAGCUCGAGAACAUCUUCGGAUGCAGAGGAGGCAUGCUUCGGGGGCCCGAUAGCGCCAACCUCUUCAACCCCCAAUGCAUCCCACCACAUGAUGAUGCCUGAAGAGCGUUGGUUGUUUG [G51U U59G G63C G77C C80U U87C C124G U131G]	-0.602
GACCAAUCUGCCCUCAGAGCUCGAGAACAUCUUCGGAUGCAGAGGAGGCAUGCUUCGGUGGCGAGAUACCGCCAACGUCCUCAACCUCCAAUGCAUCCCACCACAUGAUGAUGCCUGAAGAGCCUUGGUUUUUUG [G51U C64A G69C]	-3.5
GACCAAUCUGCCCUCAGAGCUCGAGAACAUCUUCGGAUGCAGAGGAGGCAUGCUUCGGUGGCGCGAUAGCGCAAACGUCCUCAACCUCCAAUGCAUCCCACCACAUGAUGAUGCCUAAAGAGCCUUGGUUUUUUG [G51U C73A G117A]	-4.4
GACCAAUCUGCCCUCAGAGCUCGAGAACAUCUUCGGAUGCAGAGGAGGCAGACUUCGGUGGCGAGAUAGCGCCAACGUCCUCAACCUCCAAUGCAUCCCAACACAUGAUGAUGCAUGAAGAGCCUUGGUUUUUUG [G52A C64A C101A C115A]	-6.42
GACCAAUCUGCCCUCAGAGCUCGAGAACAUCUUCGGAUGCAGAGGAGGCAUGCUUCGGUGGCGCGAUAGCGUCAACGUCCUCAACCUCCAAUGCAUCCCACCACAUGAUGAUGCCUGAAGAGCCUUGGUUUUUUG [G51U C72U]	-3.99
GACCAAUCUGCCCUCAGAGCUCGAGAACAUCUUCGGAUGCAGAGGAGGCAUGCUUCGGUGCCGCGAUAGCGCCAACGUCCUCAACCUCCAAUGCAUCCCACCACAUGAUGAUGCCUGAAGAGCCUUGGUUUUUUG [G51U G61C]	-3.56
GACCAAUCUGCCCUCAGAGCUCGAGAACAUCUUCGGAUGCAGAGGAGGCAUGCUUCGGUCGCGCGAUAGCGCCAACGUCCUCAACCUCCAAUGCAUCCCACCACAUGAUGAUGCCUGAAGAGCCUUGGUUUUUUG [G51U G60C]	-2.36
GACCAAUCUGCCCUCAGAGCUCGAGAACAUCUUCGGAUGCAGAGGAGGCAUGCUUCGGUGGCGCGAUAGCGCCAACGUCCUCAACCUCCAAUGCAUCCCACCACAUGAUGAUGCCUGAAGAGCCUUAGUUUUUUG [G51U G127A]	-4.52

Variant	polymerase ribozyme fitness (log ratio)
GACCAAUCUGCCCUCAGAGCUCGAGAACAUCUUCGGAUGCAGAGGAGGCAGACUUCGGUGGUGCGAUAGCGCCAACGUCCUCAACCUCCAAUGCAUCCCACCACAUGAUGAUGCCUGAAGAGCCUUGGUUUUUUG [G52A C62U]	-0.528
GACCAAUCUGCCCUCAGAGCUCGAGAACAUCUUCGGAUGCAGAGGAGGCAUGCUUCGGUGGCGCGAUAGCGCCAACGUCCUCAACCACCAAUGCAUCCCACCACAUUAUGAUGCAUGAAGUGCCUUGGUUUUUUG [G51U U87A G107U C115A A121U]	-7.71
GACCAAUCUGCCCUCAGAGCUCGAGAACAUCUUCGGAUGCAGAGGAGGCAUGCUUCGGUGGCGCGAUAGCACCAACGUCCUCAACCUCCGAUGCAUCGCACCACAUGAUGAUGACUGAAGAGUCUUGGUUUUUUG [G51U G71A A90G C98G C114A C123U]	-6.6
GACCAAUCUGCCCUCAGAGCUCGAGAACAUCUUCGGAUGCAGAGGAGGCAGACUUCGGUGGCGCGAUAGCGCCAACGUCCUCAACCUCCAAUGCCUCCCACCACAUGAUGAUCCCUGAAGAGCCUUGGUUUUUUG [G52A A95C G113C]	-3.3
GACCAAUCUGCCCUCAGAGCUCGAGAACAUCUUCGGAUGCAGAGGAGGCAGACUUCGGUGGCGCGAUAGCGCCAACGUCCUCAACCUCCAAUGCAUCCCACCACAUGAUGAUGCCUGAAGAGCCUUGGUUUUUUG [G52A]	-0.286
GACCAAUCUGCCCUCAGAGCUCGAGAACAUCUUCGGAUGCAGAGGAGGCAUGCUUCGGUGGCGCGAUAGCGCCAACGGCCUCAACCUCCAAUGCAUCCCACCACAUGAUGACGCCUGAAGAGACUUGGUAUUUUG [G51U U78G U112C C123A U130A]	-3.11
GACCAAUCUGCCCUCAGAGCUCGAGAACAUCUUCGGAUGCAGAGGAGGCAUGGUUCGGUGGCGCGAUAGCGCCAACGUCCUCAACCUCCAAUGCAUCCCACCACAUGAUGAUGCCUGAAGAGCAUUGGUUUUAGG [G51U C53G C124A U133A U134G]	-1.64
GACCAAUCUGCCCUCAGAGCUCGAGAACAUCUUCGGAUGCAGAGGAGGCAUGUUUCGGUGGCGCGAUAGCGCCAACGUCCUCAACCUCCAAUGCAUCCCACCACAUGAUGAUGCCUGAAGAGCCUUGGUUUUUUG [G51U C53U]	-2.7
GACCAAUCUGCCCUCAGAGCUCGAGAACAUCUUCGGAUGCAGAGGAGGCAUGUUUCGGUGGCGCGAUAGCGCCAACGUCCUCAAACUCCAAUCCAUCCCACCACAUGAUGAUGCCUGAAGAGCCUUGGUUUUUUG [G51U C53U C85A G93C]	-5.05
GACCAAUCUGCCCUCAGAGCUCGAGAACAUCUUCGGAUGCAGAGGAGGCAUGCUUCGGUGGCGCGAUAGCGCCAACGUCCUCAACCUCCAAUGCAUCCCACCACAUGAUAAUGCCUGAAGAGCCUUGGUUUAUUG [G51U G110A U132A]	-5.7
GACCAAUCUGCCCUCAGAGCUCGAGAACAUCUUCGGAUGCAGAGGAGGCAUGCUUCGGUGGCGCGAUAGCGACAACGUCCUCAACCUCCAAUGCAUCCCACCACAAGAUGAUGCCUGAAGAGCCUUGGUUUUUUG [G51U C72A U106A]	-3.24
GACCAAUCUGCCCUCAGAGCUCGAGAACAUCUUCGGAUGCAGAGGAGGCAUGCUUCGGUGGCGCGAUAGCGCCAACGUCUUCAACCUACAAUGCAUCCCACCACAUGAUGAUGCCUGAGGAGCCUUGGUUUUUUG [G51U C80U C88A A119G]	-1.11
GACCAAUCUGCCCUCAGAGCUCGAGAACAUCUUCGGAUGCAGAGGAGGCAUGCUUCGGUGGCGCGAUAGCGCCAACGUCCUCAAUCUCCAAUGCAUCCCACCACAUGAUGAUGCCUGAAGAGCCUUGGUUUUUUG [G51U C85U]	-4.37
GACCAAUCUGCCCUCAGAGCUCGAGAACAUCUUCGGAUGCAGAGGAGGCAUGCUUCGGUGGCGCGAUAGCGCCAACGUCCUUAACCUCCAAUGCAUCCCACCACAUGAUGAUGCCUGAAGAGCCUUGGUUUUUUG [G51U C82U]	-1.77
GACCAAUCUGCCCUCAGAGCUCGAGAACAUCUUCGGAUGCAGAGGAGGCAUGCUUCGGUGGCGCGAUAGCGCCAACGUCCUCAACCUCCAAUGCAUUCCACCACAUGAUGAUGCCUGAAGAGCCUUGGUUUAUUG [G51U C97U U132A]	-2.51
GACCAAUCUGCCCUCAGAGCUCGAGAACAUCUUCGGAUGCAGAGGAGGCAGACUUCGGUGGCGCGAUAGCGCCAACGUCCUCAACCUCCGAUUCAUCCCACCACAUGAUGACGCCUGACGAGCCUUGGUUUUUUG [G52A A90G G93U U112C A119C]	-1.55
GACCAAUCUGCCCUCAGAGCUCGAGAACAUCUUCGGAUGCAGAGGAGGCAUGCUUCGGUAGCGCGAUAGCGCCAACGUCCUCAACCUCCAAUGCAUCCCACCACAUGAUGAUGCCUGAAGAGCUUUGGUUUUUUG [G51U G60A C124U]	-4.52
GACCAAUCUGCCCUCAGAGCUCGAGAACAUCUUCGGAUGCAGAGGAGGCAUGCUUCGGUGGCGCGAUAGCGCCAACGUCCUAAACCUCCAAUGCCUCCCACCACAUGAUGAUGCCUGAAGAGCUUUGGUUUUUUG [G51U C82A A95C C124U]	-4.21
GACCAAUCUGCCCUCAGAGCUCGAGAACAUCUUCGGAUGCAGAGGAGGCAGACUUCGGUGGCGCGAUAGUGCCAACGUCCUCAACCUCCAAUGCAUCCCACCACAUGAUGAUGCCUGAAGAGCCUUGGUUUUUUG [G52A C70U]	-0.605
GACCAAUCUGCCCUCAGAGCUCGAGAACAUCUUCGGAUGCAGAGGAGGCAUGCUGCGGUGGCGCGAUAGCGCCAACGUCCUCAACCUCCAAUGCAUCCCACUACAUGAUGAUGCCUGAAGAGCCUUGGUUUUUUG [G51U U55G C102U]	-6.73
GACCAAUCUGCCCUCAGAGCUCGAGAACAUCUUCGGAUGCAGAGGAGGCAUGCUUCGGUGGCGCGAUAGCGCCAACGUCCUCAACCUCCAAUGCAUCCCACCACAUGAUAAUGCCUGAAGAGCCUUGGUUUUUUG [G51U G110A]	-5.3
